Key:
[1] = molecular target: HLA-A*02:03; assay: IEDB peptide-MHC binding, purified MHC/competitive/radioactivity; ≥ and ≤ were set here for values at or beyond the usual limits of such assays
[2] = molecular target: HLA-A*02:01; assay: as above
[3] = molecular target: HLA-A*02:02; assay: as above
[4] = molecular target: HLA-A*68:02; assay: IEDB peptide-MHC binding, cellular MHC/competitive/fluorescence; ≥ and ≤ were set here for values at or beyond the usual limits of such assays
[5] = molecular target: HLA-A*02:06; assay: as above
[6] = molecular target: HLA-A*68:02; assay: IEDB peptide-MHC binding, purified MHC/competitive/radioactivity; ≥ and ≤ were set here for values at or beyond the usual limits of such assays
[7] = molecular target: HLA-A*02:01; assay: IEDB peptide-MHC binding, cellular MHC/competitive/fluorescence; ≥ and ≤ were set here for values at or beyond the usual limits of such assays
[8] = source organism: Vaccinia virus WR
[9] = source organism: Influenza A virus
[10] = source organism: Mammarenavirus whitewaterense
[11] = source organism: Mammarenavirus brazilense
[12] = source organism: Hepacivirus hominis

| Sequence | IC50 [1, 8] [nM] | IC50 [2, 8] [nM] | IC50 [3, 8] [nM] | IC50 [4, 8] [nM] | IC50 [5, 8] [nM] | also measured |
| --- | --- | --- | --- | --- | --- | --- |
| KLDDTGKKEL | 139 | 450 | 101 | 35200 | 5530 |  |
| MAFILGIIIT | 2830 | 663 | 4680 | 5160 | 10300 |  |
| DVDMDFDLNI | 1520 | 4560 | 2040 | 8840 | 5830 |  |
| NLRCHSAHV | 11 | 3060 | 384 | 8200 | 8030 |  |
| GMMQNDYGGM | 589 | 705 | 103 | 26400 | 12000 |  |
| ALANTIEV |  |  |  |  |  | IC50 [1, 9]: 59 nM; IC50 [3, 9]: 162 nM; IC50 [4, 9]: 59300 nM; IC50 [5, 9]: 9130 nM |
| ILANERYRSA | 18 | 802 | 104 | 26500 | 7810 |  |
| ALTDVEKRI | 1490 | 1150 | 74 | 23900 | 14300 |  |
| GLSASDVDM | 3540 | 1720 | 497 | ≥ 70000 | 13800 |  |
| IINSVSIIL | 2900 | 2090 | 705 | 29900 | 25900 |  |
| QLSNNKYVL | 4940 | 1810 | 79 | 12500 | 10700 |  |
| VLQQNNSFI | 249 | 234 | 100 | 16300 | 8680 |  |
| RLRYNLCKYL | 0.3 | 3250 | 261 | 19200 | 15700 |  |
| KLFKRERDAI | 120 | 1480 | 92 | ≥ 70000 | 14200 |  |
| INISGYNLSL |  |  |  |  |  | IC50 [1, 10]: 1360 nM; IC50 [2, 10]: 1830 nM; IC50 [3, 10]: 179 nM; IC50 [4, 10]: 17400 nM; IC50 [5, 10]: 11400 nM |
| RMGAVTTEV |  |  |  |  |  | IC50 [1, 9]: 73 nM; IC50 [2, 9]: 222 nM; IC50 [3, 9]: 90 nM; IC50 [4, 9]: 27100 nM; IC50 [5, 9]: 5520 nM |
| KLKVDSDSGL | 56 | 2360 | 75 | 28200 | 10000 |  |
| RAMAWTVVNSI |  |  |  |  |  | IC50 [1, 9]: 66 nM; IC50 [2, 9]: 624 nM; IC50 [3, 9]: 74 nM; IC50 [4, 9]: 7510 nM; IC50 [5, 9]: 8060 nM |
| YIRRNMINKL | 70 | 3800 | 820 | 13700 | 8660 |  |
| LINLVQYRIL | 2250 | 2220 | 2120 | 30000 | 15900 |  |
| SLALKNSQA | 459 | 2490 | 662 | 29600 | 19000 |  |
| DTGKKELALT | 262 | 1680 | 1040 | 10000 | 6800 |  |
| LLEMKYALI | 135 | 2540 | 354 | 35800 | 14900 |  |
| DMDFDLNIFM | 5000 | 1750 | 1150 | 7300 | 5320 |  |
| VLQQNNSFII | 1030 | 709 | 665 | 16600 | 9640 |  |
| NLYNIRNL |  |  |  |  |  | IC50 [1, 9]: 187 nM; IC50 [2, 9]: 1340 nM; IC50 [3, 9]: 1330 nM; IC50 [4, 9]: 15300 nM; IC50 [5, 9]: 50800 nM |
| KLFKRERDA | 985 | 859 | 2390 | 35800 | 14900 |  |

| Sequence | IC50 [1, 8] [nM] | IC50 [2, 8] [nM] | IC50 [3, 8] [nM] | IC50 [4, 8] [nM] | IC50 [5, 8] [nM] | also measured |
| --- | --- | --- | --- | --- | --- | --- |
| RLNKRSYLI |  |  |  |  |  | IC50 [1, 9]: 146 nM; IC50 [3, 9]: 23 nM; IC50 [4, 9]: 42600 nM; IC50 [5, 9]: 18500 nM |
| SMKGENVFI | 19 | 611 | 5.5 | 9340 | 13700 |  |
| LLENKSLTIL | 541 | 1150 | 185 | 21300 | 7430 |  |
| RVNDLNRMPT | 1440 |  | 1360 |  | 7720 | IC50 [6, 8]: 631 nM; IC50 [7, 8]: 7200 nM |
| RVKQWVMDT | 3.6 |  | 3630 |  | 13500 | IC50 [6, 8]: 603 nM; IC50 [7, 8]: 20300 nM |
| KCFGNTALA |  |  |  |  |  | IC50 [1, 11]: 1090 nM; IC50 [2, 11]: 3330 nM; IC50 [3, 11]: 31 nM; IC50 [4, 11]: 25900 nM; IC50 [5, 11]: ≥ 70000 nM |
| LINLVQYRI | 583 |  | 311 |  | 5340 | IC50 [6, 8]: 1730 nM; IC50 [7, 8]: 5900 nM |
| RVKQWVMDTL | 689 |  | 3480 |  | 27800 | IC50 [6, 8]: 155 nM; IC50 [7, 8]: 21400 nM |
| HLENDKIEDL | 414 | 1800 | 526 | 27100 | 10600 |  |
| GLTTHCTKL | 30 | 613 | 100 | ≥ 70000 | 31600 |  |
| ELKDLLNVT | 209 |  | 1540 |  | 38500 | IC50 [6, 8]: 2780 nM; IC50 [7, 8]: 51600 nM |
| FLRPVLKAM | 9.8 |  | 1380 |  | 5480 | IC50 [6, 8]: 2470 nM; IC50 [7, 8]: 11900 nM |
| RLYNSLKRFT | 444 | 873 | 1060 | 14600 | 7280 |  |
| ALKNSQAEL | 17 | 1740 | 71 | ≥ 70000 | 33000 |  |
| YVLLLFLLLA |  |  |  |  |  | IC50 [1, 12]: 727 nM; IC50 [2, 12]: 866 nM; IC50 [3, 12]: 1050 nM; IC50 [4, 12]: 12000 nM; IC50 [5, 12]: 5900 nM |
| KIMSGEKPSV |  |  |  |  |  | IC50 [1, 12]: 1390 nM; IC50 [2, 12]: 1120 nM; IC50 [3, 12]: 411 nM; IC50 [4, 12]: ≥ 70000 nM; IC50 [5, 12]: 9470 nM |
| MTSTRTIIL | 840 |  | 1340 |  | 6790 | IC50 [6, 8]: 507 nM; IC50 [7, 8]: 6470 nM |
| DLNRMPTDML | 2190 |  | 1250 |  | 47400 | IC50 [6, 8]: 3940 nM; IC50 [7, 8]: 17300 nM |
| FLVIAINAM |  |  |  | 23300 | ≥ 70000 |  |
| IQKDINITHT | 340 |  | 1360 |  | 61700 | IC50 [6, 8]: 4990 nM; IC50 [7, 8]: 37400 nM |
| AVATTHSWI |  |  |  |  |  | IC50 [6, 9]: 876 nM; IC50 [1, 9]: 753 nM; IC50 [3, 9]: 440 nM; IC50 [5, 9]: 28000 nM; IC50 [7, 9]: 32900 nM |
| DVDIPTFNSL | 1030 |  | 1810 |  | 9710 | IC50 [6, 8]: 3050 nM; IC50 [7, 8]: 18200 nM |
| HMYRGGNGNT | 423 |  | 2020 |  | 9870 | IC50 [6, 8]: 3260 nM; IC50 [7, 8]: 19300 nM |
| VTSPLTGNNT | 2500 |  | 1450 |  | 5130 | IC50 [6, 8]: 510 nM; IC50 [7, 8]: 39500 nM |
| KVYNGIFVDT | 1440 |  | 111 |  | 16400 | IC50 [6, 8]: 1380 nM; IC50 [7, 8]: 11800 nM |
| AAAKTPVIV | 1420 |  | 1900 |  | 67300 | IC50 [6, 8]: 2020 nM; IC50 [7, 8]: 34700 nM |
| MLHNPTSET | 184 |  | 4210 |  | ≥ 70000 | IC50 [6, 8]: 1570 nM; IC50 [7, 8]: 13700 nM |
